This data set can be described thus: label from the status in PepcDB records.

For the sequence “SESGFTSKDTYLSHFNPRDYLEKYYKFGSRHSAESQILKHLLKNLFKIFCLDGVKGDLLIDIGSGPTIYQLLSACESFKEIVVTDYSDQNLQELEKWLKKEPEAFDWSPVVTYVCDLEGNRVKGPEKEEKLRQAVKQVLKCDVTQSQPLGAVPLPPADCVLSTLCLDAACPDLPTYCRALRNLGSLLKPGGFLVIMDALKSSYYMIGEQKFSSLPLGREAVEAAVKEAGYTIEWFEVISQSYSSTMANNEGLFSLVARKLSRPL”, the protein production entry was “failed”. For “SFRHTLSVDPSEQLSQDFADPVTDSGYESDEEAAAAATASLSGEEAALWNLVDPQQRLIFVLDGPAAQTLRVKRTGNLERQVVNIHRLPLERAPTVATSLLAATRPQHLVVALRTIEPHQAAAILTSTSYPSLSNVENASQVLVLANDLVQIDDPLLRPLWSDEGTQQNRIQLRWVETGCIGGITAALLAAGCWLRIPVLALLAVEDDDGPSPATLEALLLAAERFGCFTRADWEIRMPNLRQLLAKRQLLYI”, the protein production result is listed as “not failed”. Turning to “SFYLSELEHSLRVPPHLLNLPLEDAIKSVLQNVFLDKVLADLGLCVSIYDIKSVEGGFVLPGDGAATYKVGLRIVVFRPFVGEVIAAKFKESDANGLRLTLGFFDDIYVPAPLMPKPNRCEPDPYNRKQMIWVWEYGEPKEDYIVDDACQIKFRVESISYPSVPTERAEDAKPFAPMVVTGNMDDDGLGPVSWWDSYEQVDQEE”, the protein production entry is recorded as “failed”.

With “SGGDVNEAYRVETDTDTFFLLVQRGRKESFYAAEIAGLNEFERAGITAPRVIASGEVNGDVYLVMTYLEEGASGSQRQLGQLVAQLHSQQQEEGKFGFSLPYEGGDISFDNHWQDDWRTIFVDKRLDHLKEELLNRGLWDANDIKVYDKVRSQIVEELEKHQSKPSLLHGDLWGGNYMFLKDGRPALFDPAPLYGDREFDIGITTVFGGFTSEFYDAYNKHYPLAKGASYRLEFYRLYLLMV”, the protein production result is listed as “failed”. To “SGRLFVRNLSYTSSEEDLEKLFSAYGPLSELHYPIDSLTKKPKGFAFVTFMFPEHAVKAYAEVDGQVFQGRMLHVLPSTIKKEASQ” belongs “not failed”; to “SGRPFVEMYSEIPEIIHMTEGRELVIPCRVTSPNITVTLKKFPLDTLIPDGKRIIWDSRKGFIISNATYKEIGLLTCEATVNGHLYKTNYLTHRQTNTIIDVQISTPRPVKLLRGHTLVLNCTATTPLNTRVQMTWSYPDEKNKRASVRRRIDQSNSHANIFYSVLTIDKMQNKDKGLYTCRVRSGPSFKSVNTSVHIYDKAFITVKHR”, “not failed”; to “SKHAKSFKDDMYLRTEHVVWQKEMLTLARLAAAVDMAAADSKDVANSHIFDAMVNQKIKLQNPEVLKKWLGEQTAFDGKKVLAAYESPESQARADKMQELTETFQIDGTPTVIVGGKYKVEFADWESGMNTIDLLADKVREEQKAAQ”, “failed”. For “SKQPTSAENSVAKKEDKVPVKKQKTRTVFSSTQLCVLNDRFQRQKYLSLQQMQELSNILNLSYKQVKTWFQNQRMKSKRWQKNN”, the protein production result was “not failed”.

In the case of “SLATCIGEKIEDFKVGNLLGKGSFAGVYRAESIHTGLEVAIKMIDKKAMYKAGMVQRVQNEVKIHCQLKHPSILELYNYFEDSNYVYLVLEMCHNGEMNRYLKNRVKPFSENEARHFMHQIITGMLYLHSHGILHRDLTLSNLLLTRNMNIKIADFGLATQLKMPHEKHYTLCGTPNYISPEIATRSAHGLESDVWSLGCMFYTLLIGRPPFDTDTVKNTLNKVVLADYEMPSFLSIEAKDLIHQLLRRNPADRLSLSSVLDHPFMSRNSSTKSKDEG”, the protein production result is “not failed”. For “SLDDHTRDPTVKAPDGNPSGWRTDGQWEHETLRRAVVHGVRLYNSGEFHESHDCFEDEWYNYGRGNTESKFLHGMVQVAAGAYKHFDFEDDDGMRSLFRTSLQYFRGVPNDYYGVDLLDVRTTVTNALSDPSALHGWQIRLDGEYPTCRPEDIEFAESLEH”, the protein production entry is on record as “not failed”. To “SLREMLGCCKVYISEARNKTALEAIERALKPFPPAAIVNKFEDAAYGRVGYTVVSSLANGSSSSLKNAVFAMVKTALDTINLELHCGSHPRLGVVDHICFHPLSQTSIEQVSSVANSLAMDIGSILRVPTYLYGAAEKEQCTLDSIRRKLGYFKANREGHEWAGGFDLEMVPLKPDAGPQEVSKAKGVVAVGACGWVSNYNVPVMSNDLKAVRRIARKTSERGGGLASVQTMALVHGEGVIEVACNLLNPSQVGGDEVQGLIERLGREEGLLVGKGYYTDYTPDQIVERYMDLLNNS” belongs “failed”; to “SLSEAGYPRKVMQHAEELHERILSFDSRITVPLDFGTTGNEVDKDGPGQLDLVKAGRGRLSGAALAIFGWPEMWNGPNAPHKPTPGFVDEARHQQEIRYKILTGMVRDFPNQVGIAYSPEDFRRLAMEGKFAIVMSMLNAYPLGDDLSQLDKWAARGVRMFGFSYVGNNDWADSSRPLPFFNDSPDALGGLSPLGKQAVERLNDLGVIIDVSQMSTKALEQVAALSRAPIVASHSAPRALVDIKRNLSDHEMQLIKDSGGVIQVVGFPAYLRPLSKPTLDKLDALRARFDLPPLEGLDYALMPGDPIITIWPEQRFGEYASALYGILEEEPKAGLKELVDAIDYTVKKVGIDHVGISSDFNDGGGVDGWKDVSEIRNVTAELITRGYSDADIAKLWGGNFLRAWGEVQKRAKPTATP”, “not failed”. Consider “SLYDPAEKYFNCTDIQRAFFEAGIKLGAIFHQYTGIPVNSENASMAEEFIERSTMIQPFVENVRISINNVKRSSGTYSYSSLNEKMLHAEVLINYNGKKVLGVLNYDEGLDYPVMYAKEVL”, for which the protein production result was “not failed”. On to “SMSEHSAIVTWKRKDSEAFTDNQYSRAHTWEFDGGSKILASASPHVVPVPLSVEANVDPEEAFVAALSSCHMLVFLSIAAKQRYLVESYTDNAVGILGKNSKGKTSVTKVVLRPQVVFSGTSKPTLQQLEKMHHLAHENCFIANSVETEVVTEII”, for which the protein production entry is recorded as “not failed”. To “SNIRLIATDMDGTLTQQGRFSAALLQTLENLKAAGLPILIVTGRSAGWVSGISSLMPIAGAIGENGGLFYPADSEHPLLLTPIADLTGHRQNLALVFQKLKQKFPQIQESGDNRFRITDWTFDVAGLTLAELQLIGNLCQDMGWGFTYSNVQCHIKPQGQEKAIALLQVLQKYFPDYSPTQVVTVGDSPNDESLFNQRYFPLSVGVANVLKYAHQLQHQPSYVTTTAEGEGFCELCSYIL” belongs “failed”; to “SNPNDLPDFPEHEYAATQQVGEGVINGDLYLTSASGAIQKGTNTKVALEPATSYMKAYYAKFGNLDAAKRDPDVQPPVLDPRRATYVREATTDQNGRFDFDHIPNGTYYISSELTWSAQSDGKTITEGGTVTKLVTVSGSQPQKVLLTR”, “not failed”.

Consider “SNRQVQLMARQQRLKAIEDRLEKFYIPLIKAFSSYVYTAQTEDEIETIITCRRYLAGNNLLRVLPMHFKFKADKIAGSANWTFYAKEDFEQWKEALDVLWEEFLEVLKEYYTLSGTEISLPEKPDWLIGYK”, for which the protein production result is “not failed”.

“SNTPSAEADWSPGLELHPDYKTWGPEQVCSFLRRGGFEEPVLLKNIRENEITGALLPCLDESRFENLGVSSLGERKKLLSYIQRLVQIHVDTMKVI”: the protein production entry is “not failed”. Regarding “SPSKVQELSVYEINELDRHSPKILKNAFSLMFGLGDLVPFTNKLYTGDLKKRVGITAGLCVVIEHVPEKKGERFEATYSFYFGDYGHLSVQGPYLTYEDSFLAITGGAGIFEGAYGQVKLQQLVYPTKLFYTFYLKGLANDLPLELTGTPVPPSKDIEPAPEAKALEPSGVISNYTN”, the protein production result is on record as “failed”. Take “SQGDCSYSRTALYDLLGVPSTATQAQIKAAYYRQCFLYHPDRNSGSAEAAERFTRISQAYVVLGSATLRRKYDRGLLSDEDLRGPG”: the protein production result is reported as “not failed”.

On to “SQLISADGKVFGSYAHSGDNRIYTRYNEISPDLIKALIATEDVRFRKHSGIDSKGLFRAVVKRGILNQKSGGGGSTITQQLAKLLYSPRTETKLGRLFQKPIEWVIAVKLERFYTKEEIITMYLNYFDFLYNAVGIKSAAYTYFGKQPADLKIEEAAVLVGMCKNPAYYNPVLHG”, for which the protein production entry was “failed”.

Regarding “SQYKNISEKIVHIIQQEFDTDLTLESIAGRLHYNPNYLSSIFRKEMKISFSEYLSSYRHHIAKNWLTETTMSVKEISEKLKYKNPQNFIRSFKKLEGITPGKYRELKNHS”, the protein production result is reported as “not failed”.

As to “SRFYEQHADCLAEQYTSLKFEDVHASWRAFWPQARDRVLDVGAGSGRDAKWMAEHGCEVIAIEPAQALLRFGKSYCGDSVTWLEDGLPKLEKTINLGFRFDLILVSAVWMHLAPTHRERAFRKLANLLAPNGRLVISLRHGDFSDGRKAYPVSVEELEKFAKNRALMVRNVS”, the protein production entry is “failed”. Turning to “SRPLGEVYLDSSKPAVYNYPEGAAYEFNAAAAANAQVYGQTGLPYGPGSEAAAFGSNGLGGFPPLNSVSPSPLMLLHPPPQLSPFLQPHGQQVPYYLENEPSGYTVREAGPPAFYRPNSDNRRQG”, the protein production entry is “not failed”. In the case of “SSPIRLSTSNLPMTLTTNTSSGAPNKAFNTSSVNSGNSFSRTTTSSTTTTTERIEIRAEGDGEVDTDSIRKRITERLRRSVSKTISNLAGTPVTNTEEGSRYSRSVSRSVYDDEKSSKRSYSTGEEDIDEEDELEEDQFRSFNVTRKSATPAEISCRQLKAPREFGGWLGAFLFLLLLPTAVYYLTWSCTARNACQFKHLNLGILLDVNYLTRQVFQPRVVGAFAAYQVVVFLLVALLPGRRVHLTRETYKFNCLAVSLTLLIASGVAEYLKYPVVTFVLRHYLRFCIFGLVGAFVAAAW”, the protein production result is reported as “failed”. Turning to “SSPPSGCPMHEGKMKGCPVNTEPSGPTCEKKTYSVPAHQERAYEYVECPIRGTAAENKENLDPSNLMPPPNQTPAPDQPFALSTVREESSIPRADSEKKWVYPSEQMFWNAMLKKGWKWKDEDISQKDMYNIIRIHNQNNEQAWKEILKWEALHAAECPCGPSLIRFGGKAKEYSPRARIRSWMGYELPFDRHDWIINRCGTEVRYVIDYYDGGEVNKDYQFTILDVRPALDSLSAVWDRMKVAWWRWTS”, the protein production entry is “failed”.

“SSQPVISAQEQETQIVLYGKLVEARQKHANKMDVPPAILATNKILVDMAKMRPTTVENVKRIDGVSEGKAAMLAPLWEVIKHFCQTNSVQTDLFSSTKPQ”: the protein production entry is given as “not failed”. Then “SSRRRRIVAAARDYVLAHRSRPVGVPELCEQLHVSRRTLQYCFQDVLGMAPATYLRALRLNGVRRDLRGRAADSVQDVAAAWGFWHLSQFATDYRRMFGARPSETLRGALA”, with “failed”. For the sequence “SSSKGISNALKDLVEDFERELGRMLSPFELEDLQKTVSDDKTDPDLVRSALREAVFNGKTNWNYIQAILRNWRHEGI”, the protein production result is recorded as “failed”. Then “STGNAGEWCLMESDPGVFTELIKGFGCRGAQVEEIWSLEPENFEKLKPVHGLIFLFKWQPGEEPAGSVVQDSRLDTIFFAKQVINNACATQAIVSVLLNCTHQDVHLGETLSEFKEFSQSFDAAMKGLALSNSDVIRQVHNSFARQQMFEFDTKTSAKEEDAFHFVSYVPVNGRLYELDGLREGPIDLGACNQDDWISAVRPVIEKRIQKYSEGEIRFNLMAIVSDRKMIYEQKIAELQRQLAEEPMDTDQGNSMLSAIQSEVAKNQMLIEEEVQKLKRYKIENIRRKHNYLPFIMELLKTLAEHQQLIPLVEKAKEKQNAKKAQETK”, with “not failed”. For “STHKLIRQDNSELIYYLDKQAEHNKTLLVLMQGSDCNSIKNNTFIQETFGRWLPSSDVLMVEKYGITAQLTYSDDNGEREDCPKNYKLHDNPNQRLADYLAVLDKLSPNYTNIVLLGGSEGATMVHLVVAERHDISAAIALNGGGRFFLDDVLYNIRNTTPKEHVEEAINSFQQLANAIITNQIGDEQFVSEHSKLWWQQYLAIDLLEVIKRNTQTPVLIVQTLDDINVDVAAFHQLSQEITQPNVTFIKYDKLNHGFYNQQGERLTGKVVQDIQQWYAQYNK”, the protein production entry was “not failed”.

The values are drawn from a protein production outcome set (Wang et al. 2014).
